From US20190270786A1 (PROTAGONIST THERAPEUTICS, published 2019)
One block for each binder: values may come before it. Bridge positions count the residues as written; N and C are the ends.

Legend:
human IL-23 [1] = target: T1, human IL-23 (human, UniProt Q9NPF7 20-189; P29460 23-328); experiment: Human IL23/IL12Rβ1 huFc competition ELISA (IL-12Rβ1_huFC coated, IL-23 at its EC50)
T1 construct: also called interleukin-23
T1 sequence (looked up) 1: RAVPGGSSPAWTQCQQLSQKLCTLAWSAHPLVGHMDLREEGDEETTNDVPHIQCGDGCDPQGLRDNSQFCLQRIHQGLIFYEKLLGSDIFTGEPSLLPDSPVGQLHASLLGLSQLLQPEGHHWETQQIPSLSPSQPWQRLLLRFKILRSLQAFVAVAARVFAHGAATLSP
T1 sequence (looked up) 2: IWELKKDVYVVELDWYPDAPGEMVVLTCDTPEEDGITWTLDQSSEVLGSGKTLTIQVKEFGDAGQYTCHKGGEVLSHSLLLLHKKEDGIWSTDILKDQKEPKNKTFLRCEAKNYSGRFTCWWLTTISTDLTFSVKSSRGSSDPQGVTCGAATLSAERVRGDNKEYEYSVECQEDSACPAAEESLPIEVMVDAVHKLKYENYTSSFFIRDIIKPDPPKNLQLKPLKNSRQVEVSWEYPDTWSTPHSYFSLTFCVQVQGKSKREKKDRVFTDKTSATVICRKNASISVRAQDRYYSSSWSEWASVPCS
Description: (§1) Human IL-12Rβ1 ELISA assays were performed as follows: an assay plate was coated with 100 ng/well of human IL-12Rβ1_huFC and incubated overnight at 4° C. The wells were washed, blocked, and washed again. […] Signals were visualized with TMB One Component HRP Membrane Substrate and quenched with 2 M sulfuric acid.

mouse IL-23 = target: T2, mouse IL-23 (mouse, UniProt Q9EQ14 22-196; P43432 23-335); experiment: Mouse IL23/IL23R huFc competition ELISA
T2 sequence (looked up) 1: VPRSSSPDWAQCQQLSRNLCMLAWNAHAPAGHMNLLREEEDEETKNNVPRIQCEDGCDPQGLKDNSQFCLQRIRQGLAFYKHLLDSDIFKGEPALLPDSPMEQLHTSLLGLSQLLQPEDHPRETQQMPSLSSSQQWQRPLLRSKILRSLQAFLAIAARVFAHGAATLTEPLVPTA
T2 sequence (looked up) 2: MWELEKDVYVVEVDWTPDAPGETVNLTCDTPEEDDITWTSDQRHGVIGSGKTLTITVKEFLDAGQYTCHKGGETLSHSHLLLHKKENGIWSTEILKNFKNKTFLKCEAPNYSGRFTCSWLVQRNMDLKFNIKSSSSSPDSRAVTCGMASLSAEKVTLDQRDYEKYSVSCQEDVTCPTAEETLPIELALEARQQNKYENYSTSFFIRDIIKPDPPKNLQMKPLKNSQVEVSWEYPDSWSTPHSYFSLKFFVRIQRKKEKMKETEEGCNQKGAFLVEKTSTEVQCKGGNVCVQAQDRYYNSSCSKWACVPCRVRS

human IL-23 [2] = target: T1, human IL-23; experiment: Human IL23/IL23R huFc competition ELISA
Description: (§2) Immulon® 4HBX plate was coated with 200 ng/well of IL23R_huFC and incubated overnight at 4° C. The wells were washed three times with PBST, blocked with PBS containing 5% PhosphoBLOCKER (Cell Biolabs #AKR-103) for 1 hour at room temperature, and washed again three times with PBST. […] The wells were again washed four times with PBST. The secondary antibodies, HRP conjugated donkey anti-goat IgG (Jackson ImmunoResearch Laboratories #705-035-147) diluted 1:5000 in PBS, was then added and incubated for 30 minutes at room temperature. The plate was finally washed as above. Signals were visualized with TMB One Component HRP Membrane Substrate, quenched with 2 M sulfuric acid and read spectrophotometrically at 450 nm.

human IL-12 = target: T3, human IL-12 (human, UniProt P29459 23-219; P29460 23-328); experiment: Human IL12/IL12Rβ1 huFc competition ELISA (IL-12Rβ1_huFC coated, IL-12 at its EC50)
T3 sequence (looked up) 1: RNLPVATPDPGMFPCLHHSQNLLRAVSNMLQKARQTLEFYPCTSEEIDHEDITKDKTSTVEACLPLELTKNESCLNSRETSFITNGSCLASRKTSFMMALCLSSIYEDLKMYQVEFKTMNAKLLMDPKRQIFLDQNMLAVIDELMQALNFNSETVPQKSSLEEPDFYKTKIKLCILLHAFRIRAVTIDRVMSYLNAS
T3 sequence (looked up) 2: T1 sequence (looked up) 2
Description: as §1

human IL-23 [3] = target: T1, human IL-23; experiment: cell-based or functional assay
human IL-23 [4] = target: T1, human IL-23; experiment: IL23-IL23R competitive binding ELISA (IL23R_huFC coated, 0.9 nM IL-23, peptide titrated); bin by the legend in paragraph 291
Description: as §2

IC50 (human IL-23 [1]): 0.14 µg/mL
B1: Ustekinumab (antibody, V domains shown)
VH: EVQLVQSGAEVKKPGESLKISCKGSGYSFTTYWLGWVRQMPGKGLDWIGIMSPVDSDIRYSPSFQGQVTMSVDKSITTAYLQWNSLKASDTAMYYCARRRPGQGYFDFWGQGTLVTVSS
VL: DIQMTQSPSSLSASVGDRVTITCRASQGISSWLAWYQQKPEKAPKSLIYAASSLQSGVPSRFSGSGSGTDFTLTISSLQPEDFATYYCQQYNIYPYTFGQGTKLEIK

IC50 (mouse IL-23): 3.6 µM
IC50 (human IL-23 [2]): 3.3 µM
IC50 (human IL-12): > 100 µM
Mouse splenocyte assay: IC50 of IL-23-dependent IL-17A release (human IL-23 [3]): 1.6 µM
IC50 (human IL-23 [1]): > 100 µM
B2: Peptide 10 (peptide)
peptide: Ac-FNMQCLRRMSEAGVDPNLNQEQRWAKIKSIMDDC-NH2
modifications: disulfide 5-34
SMILES: CC[C@H](C)[C@@H]1NC(=O)[C@H](CCCCN)NC(=O)[C@H](C)NC(=O)[C@H](Cc2c[nH]c3ccccc23)NC(=O)[C@H](CCCNC(=N)N)NC(=O)[C@H](CCC(N)=O)NC(=O)[C@H](CCC(=O)O)NC(=O)[C@H](CCC(N)=O)NC(=O)[C@H](CC(N)=O)NC(=O)[C@H](CC(C)C)NC(=O)[C@H](CC(N)=O)NC(=O)[C@@H]2CCCN2C(=O)[C@H](CC(=O)O)NC(=O)[C@H](C(C)C)NC(=O)CNC(=O)[C@H](C)NC(=O)[C@H](CCC(=O)O)NC(=O)[C@H](CO)NC(=O)[C@H](CCSC)NC(=O)[C@H](CCCNC(=N)N)NC(=O)[C@H](CCCNC(=N)N)NC(=O)[C@H](CC(C)C)NC(=O)[C@@H](NC(=O)[C@H](CCC(N)=O)NC(=O)[C@H](CCSC)NC(=O)[C@H](CC(N)=O)NC(=O)[C@H](Cc2ccccc2)NC(C)=O)CSSC[C@@H](C(N)=O)NC(=O)[C@H](CC(=O)O)NC(=O)[C@H](CC(=O)O)NC(=O)[C@H](CCSC)NC(=O)[C@H]([C@@H](C)CC)NC(=O)[C@H](CO)NC(=O)[C@H](CCCCN)NC1=O
notes: Synthetic peptide

IC50 (human IL-23 [4]): ≤ 1 µM
B3: Peptide 13 (peptide)
peptide: Ac-FNMQCLRRMAEAGVDPNLNQEQRWAKIKSIMDDC-NH2
modifications: disulfide 5-34
SMILES: CC[C@H](C)[C@@H]1NC(=O)[C@H](CCCCN)NC(=O)[C@H](C)NC(=O)[C@H](Cc2c[nH]c3ccccc23)NC(=O)[C@H](CCCNC(=N)N)NC(=O)[C@H](CCC(N)=O)NC(=O)[C@H](CCC(=O)O)NC(=O)[C@H](CCC(N)=O)NC(=O)[C@H](CC(N)=O)NC(=O)[C@H](CC(C)C)NC(=O)[C@H](CC(N)=O)NC(=O)[C@@H]2CCCN2C(=O)[C@H](CC(=O)O)NC(=O)[C@H](C(C)C)NC(=O)CNC(=O)[C@H](C)NC(=O)[C@H](CCC(=O)O)NC(=O)[C@H](C)NC(=O)[C@H](CCSC)NC(=O)[C@H](CCCNC(=N)N)NC(=O)[C@H](CCCNC(=N)N)NC(=O)[C@H](CC(C)C)NC(=O)[C@@H](NC(=O)[C@H](CCC(N)=O)NC(=O)[C@H](CCSC)NC(=O)[C@H](CC(N)=O)NC(=O)[C@H](Cc2ccccc2)NC(C)=O)CSSC[C@@H](C(N)=O)NC(=O)[C@H](CC(=O)O)NC(=O)[C@H](CC(=O)O)NC(=O)[C@H](CCSC)NC(=O)[C@H]([C@@H](C)CC)NC(=O)[C@H](CO)NC(=O)[C@H](CCCCN)NC1=O
notes: Synthetic peptide
